Laboratory results from publication PMC10132808, “Stimulation of the catalytic activity of the tyrosine kinase Btk by the adaptor protein Grb2” (eLife, 2023).

Biological target: T1, Grb2 labeled with Alexa Fluor 647 (UniProt P62993 1-217, Alexa Fluor 647 C2 maleimide on a surface cysteine (at most one per molecule; about 17% labeling overall))
T1 construct: The labeled cysteine is not identified; Only about 17% of the preparation carries the dye; also called Grb2-AlexaFluor647; source: E. coli BL21(DE3), purified (HisTrap, TEV cleavage, gel filtration), labeled by maleimide coupling; not shown: His6, N-terminal, cleaved
T1 sequence (P62993 whole entry): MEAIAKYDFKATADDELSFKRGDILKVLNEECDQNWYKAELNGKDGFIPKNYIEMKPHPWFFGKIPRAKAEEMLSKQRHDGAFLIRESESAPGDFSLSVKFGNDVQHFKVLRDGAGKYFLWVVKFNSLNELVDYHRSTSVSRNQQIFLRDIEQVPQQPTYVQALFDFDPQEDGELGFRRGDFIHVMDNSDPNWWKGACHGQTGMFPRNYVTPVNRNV
Test: TIRF microscopy of recruitment to supported-lipid bilayers; N-terminally His-tagged Btk constructs tethered to bilayers with 4% DGS-NTA(Ni), 96% DOPC, washed after equilibration; Grb2-Alexa Fluor 647 added; fluorescence at the membrane over time
Conditions: both partners purified

B1: His-tagged Btk proline-rich linker (domain or fragment, human, UniProt Q06187 171-214, looked up)
chain: RNGSLKPGSSHRKTKKPLPPTPEEDQILKKPLPPEPAAAPVSTS
notes: Btk, human, residues 171-214 (proline-rich linker between the PH-TH module and the SH3 domain); A SUMO module may also be kept, because the protease step was left out; also called the isolated proline-rich linker; source: E. coli BL21(DE3), purified (HisTrap, gel filtration; protease step left out); not shown: His6, N-terminal, kept
binding result: binds
